In US20140011734A1 (Sanofi, published 2014):
Starred links: 1 amine or outer side, 2 acyl side, 3 side chain; linkers in the order of their positions; H or OH if unused. Non-standard residues stand in square brackets, D forms with d. 4‑aminomethylphenylacetic acid = (4-aminomethyl-phenyl)-acetic acid ring linker, O=C(Cc1ccc(CN[*:1])cc1)[*:2]; Chg = N[C@H](C(=O)O)C1CCCCC1; Nle = CCCC[C@H](N)C(=O)O; Orn = NCCC[C@H](N)C(=O)O; Nva = CCC[C@H](N)C(=O)O; Dap = NC[C@H](N)C(=O)O; Ahp = NCCCCCCC(=O)O; Ahx = NCCCCCC(=O)O; GABA = NCCCC(=O)O; βAla = NCCC(=O)O

B1: Cyclo[Leu-His-Asn-Leu-NH-(CH2)5-CO-Thr-Glu-Arg-Met-Ala] (peptide)
peptide: cyclo(LHNL[Ahx]TERMA)
SMILES: CSCC[C@@H]1NC(=O)[C@H](CCCNC(=N)N)NC(=O)[C@H](CCC(=O)O)NC(=O)[C@H]([C@@H](C)O)NC(=O)CCCCCNC(=O)[C@H](CC(C)C)NC(=O)[C@H](CC(N)=O)NC(=O)[C@H](Cc2c[nH]cn2)NC(=O)[C@H](CC(C)C)NC(=O)[C@H](C)NC1=O
B2: Cyclo[Leu-D-His-Asn-Leu-NH-(CH2)6-CO-Thr-Glu-Arg-Met-Ala] (peptide)
peptide: cyclo(L[dH]NL[Ahp]TERMA)
SMILES: CSCC[C@@H]1NC(=O)[C@H](CCCNC(=N)N)NC(=O)[C@H](CCC(=O)O)NC(=O)[C@H]([C@@H](C)O)NC(=O)CCCCCCNC(=O)[C@H](CC(C)C)NC(=O)[C@H](CC(N)=O)NC(=O)[C@@H](Cc2c[nH]cn2)NC(=O)[C@H](CC(C)C)NC(=O)[C@H](C)NC1=O
B3: Cyclo[Ile-His-Asn-Leu-NH-(CH2)6-CO-Thr-Glu-Arg-Met-Ala] (peptide)
peptide: cyclo(IHNL[Ahp]TERMA)
SMILES: CC[C@H](C)[C@@H]1NC(=O)[C@H](C)NC(=O)[C@H](CCSC)NC(=O)[C@H](CCCNC(=N)N)NC(=O)[C@H](CCC(=O)O)NC(=O)[C@H]([C@@H](C)O)NC(=O)CCCCCCNC(=O)[C@H](CC(C)C)NC(=O)[C@H](CC(N)=O)NC(=O)[C@H](Cc2c[nH]cn2)NC1=O
B4: Cyclo[Leu-His-Asn-Leu-NH-(CH2)6-CO-Thr-Glu-Arg-Ile-Ala] (peptide)
peptide: cyclo(LHNL[Ahp]TERIA)
SMILES: CC[C@H](C)[C@@H]1NC(=O)[C@H](CCCNC(=N)N)NC(=O)[C@H](CCC(=O)O)NC(=O)[C@H]([C@@H](C)O)NC(=O)CCCCCCNC(=O)[C@H](CC(C)C)NC(=O)[C@H](CC(N)=O)NC(=O)[C@H](Cc2c[nH]cn2)NC(=O)[C@H](CC(C)C)NC(=O)[C@H](C)NC1=O
B5: Cyclo[Leu-His-Asn-Leu-NH-(CH2)6-CO-Ser-Glu-Arg-Met-Ala] (peptide)
peptide: cyclo(LHNL[Ahp]SERMA)
SMILES: CSCC[C@@H]1NC(=O)[C@H](CCCNC(=N)N)NC(=O)[C@H](CCC(=O)O)NC(=O)[C@H](CO)NC(=O)CCCCCCNC(=O)[C@H](CC(C)C)NC(=O)[C@H](CC(N)=O)NC(=O)[C@H](Cc2c[nH]cn2)NC(=O)[C@H](CC(C)C)NC(=O)[C@H](C)NC1=O
B6: Cyclo[Leu-His-Asn-Leu-NH-(CH2)6-CO-Thr-Glu-Lys-Met-Ala] (peptide)
peptide: cyclo(LHNL[Ahp]TEKMA)
SMILES: CSCC[C@@H]1NC(=O)[C@H](CCCCN)NC(=O)[C@H](CCC(=O)O)NC(=O)[C@H]([C@@H](C)O)NC(=O)CCCCCCNC(=O)[C@H](CC(C)C)NC(=O)[C@H](CC(N)=O)NC(=O)[C@H](Cc2c[nH]cn2)NC(=O)[C@H](CC(C)C)NC(=O)[C@H](C)NC1=O
B7: Cyclo[Leu-His-Asn-Leu-NH-(CH2)6-CO-Thr-Glu-Arg-Met-Arg] (peptide)
peptide: cyclo(LHNL[Ahp]TERMR)
SMILES: CSCC[C@@H]1NC(=O)[C@H](CCCNC(=N)N)NC(=O)[C@H](CCC(=O)O)NC(=O)[C@H]([C@@H](C)O)NC(=O)CCCCCCNC(=O)[C@H](CC(C)C)NC(=O)[C@H](CC(N)=O)NC(=O)[C@H](Cc2c[nH]cn2)NC(=O)[C@H](CC(C)C)NC(=O)[C@H](CCCNC(=N)N)NC1=O
B8: Cyclo[Leu-His-Asn-Leu-NH-(CH2)6-CO-Asp-Glu-Arg-Met-Ala] (peptide)
peptide: cyclo(LHNL[Ahp]DERMA)
SMILES: CSCC[C@@H]1NC(=O)[C@H](CCCNC(=N)N)NC(=O)[C@H](CCC(=O)O)NC(=O)[C@H](CC(=O)O)NC(=O)CCCCCCNC(=O)[C@H](CC(C)C)NC(=O)[C@H](CC(N)=O)NC(=O)[C@H](Cc2c[nH]cn2)NC(=O)[C@H](CC(C)C)NC(=O)[C@H](C)NC1=O
B9: Cyclo[Leu-His-Asn-Leu-NH-(CH2)6-CO-Leu-Glu-Arg-Met-Ala] (peptide)
peptide: cyclo(LHNL[Ahp]LERMA)
SMILES: CSCC[C@@H]1NC(=O)[C@H](CCCNC(=N)N)NC(=O)[C@H](CCC(=O)O)NC(=O)[C@H](CC(C)C)NC(=O)CCCCCCNC(=O)[C@H](CC(C)C)NC(=O)[C@H](CC(N)=O)NC(=O)[C@H](Cc2c[nH]cn2)NC(=O)[C@H](CC(C)C)NC(=O)[C@H](C)NC1=O
B10: Cyclo[Leu-His-Asn-Leu-NH-(CH2)6-CO-Thr-Glu-Arg-Met-Gln] (peptide)
peptide: cyclo(LHNL[Ahp]TERMQ)
SMILES: CSCC[C@@H]1NC(=O)[C@H](CCCNC(=N)N)NC(=O)[C@H](CCC(=O)O)NC(=O)[C@H]([C@@H](C)O)NC(=O)CCCCCCNC(=O)[C@H](CC(C)C)NC(=O)[C@H](CC(N)=O)NC(=O)[C@H](Cc2c[nH]cn2)NC(=O)[C@H](CC(C)C)NC(=O)[C@H](CCC(N)=O)NC1=O
B11: Cyclo[Leu-His-Asn-Leu-NH-(CH2)6-CO-His-Glu-Arg-Met-Ala] (peptide)
peptide: cyclo(LHNL[Ahp]HERMA)
SMILES: CSCC[C@@H]1NC(=O)[C@H](CCCNC(=N)N)NC(=O)[C@H](CCC(=O)O)NC(=O)[C@H](Cc2c[nH]cn2)NC(=O)CCCCCCNC(=O)[C@H](CC(C)C)NC(=O)[C@H](CC(N)=O)NC(=O)[C@H](Cc2c[nH]cn2)NC(=O)[C@H](CC(C)C)NC(=O)[C@H](C)NC1=O
B12: Cyclo[Leu-Orn-Asn-Leu-NH-(CH2)6-CO-Thr-Glu-Arg-Met-Ala] (peptide)
peptide: cyclo(L[Orn]NL[Ahp]TERMA)
SMILES: CSCC[C@@H]1NC(=O)[C@H](CCCNC(=N)N)NC(=O)[C@H](CCC(=O)O)NC(=O)[C@H]([C@@H](C)O)NC(=O)CCCCCCNC(=O)[C@H](CC(C)C)NC(=O)[C@H](CC(N)=O)NC(=O)[C@H](CCCN)NC(=O)[C@H](CC(C)C)NC(=O)[C@H](C)NC1=O
B13: Cyclo[Leu-His-Asn-Leu-NH-X4-X3-X2-X1-CO-Thr-Glu-Arg-Met-Ala] of example 3 (peptide)
peptide: cyclo(LHNL[4‑aminomethylphenylacetic acid]TERMA)
SMILES: CSCC[C@@H]1NC(=O)[C@H](CCCNC(=N)N)NC(=O)[C@H](CCC(=O)O)NC(=O)[C@H]([C@@H](C)O)NC(=O)Cc2ccc(cc2)CNC(=O)[C@H](CC(C)C)NC(=O)[C@H](CC(N)=O)NC(=O)[C@H](Cc2c[nH]cn2)NC(=O)[C@H](CC(C)C)NC(=O)[C@H](C)NC1=O
B14: Cyclo[Leu-His-Asn-Leu-NH-(CH2)3-CO-Asn-Thr-Glu-Arg-Met-Ala] (peptide)
peptide: cyclo(LHNL[GABA]NTERMA)
SMILES: CSCC[C@@H]1NC(=O)[C@H](CCCNC(=N)N)NC(=O)[C@H](CCC(=O)O)NC(=O)[C@H]([C@@H](C)O)NC(=O)[C@H](CC(N)=O)NC(=O)CCCNC(=O)[C@H](CC(C)C)NC(=O)[C@H](CC(N)=O)NC(=O)[C@H](Cc2c[nH]cn2)NC(=O)[C@H](CC(C)C)NC(=O)[C@H](C)NC1=O
B15: Cyclo[Leu-His-Asn-Leu-NH-(CH2)2-CO-Ala-Thr-Glu-Arg-Met-Ala] (peptide)
peptide: cyclo(LHNL[βAla]ATERMA)
SMILES: CSCC[C@@H]1NC(=O)[C@H](CCCNC(=N)N)NC(=O)[C@H](CCC(=O)O)NC(=O)[C@H]([C@@H](C)O)NC(=O)[C@H](C)NC(=O)CCNC(=O)[C@H](CC(C)C)NC(=O)[C@H](CC(N)=O)NC(=O)[C@H](Cc2c[nH]cn2)NC(=O)[C@H](CC(C)C)NC(=O)[C@H](C)NC1=O
B16: Cyclo[Leu-His-Asn-Leu-NH-(CH2)6-CO-Thr-Glu-Dpr-Met-Ala] (peptide)
peptide: cyclo(LHNL[Ahp]TE[Dap]MA)
SMILES: CSCC[C@@H]1NC(=O)[C@H](CN)NC(=O)[C@H](CCC(=O)O)NC(=O)[C@H]([C@@H](C)O)NC(=O)CCCCCCNC(=O)[C@H](CC(C)C)NC(=O)[C@H](CC(N)=O)NC(=O)[C@H](Cc2c[nH]cn2)NC(=O)[C@H](CC(C)C)NC(=O)[C@H](C)NC1=O
B17: Cyclo[Leu-His-Asn-Leu-NH-(CH2)6-CO-Thr-Glu-Arg-Met-Nva] (peptide)
peptide: cyclo(LHNL[Ahp]TERM[Nva])
SMILES: CCC[C@@H]1NC(=O)[C@H](CCSC)NC(=O)[C@H](CCCNC(=N)N)NC(=O)[C@H](CCC(=O)O)NC(=O)[C@H]([C@@H](C)O)NC(=O)CCCCCCNC(=O)[C@H](CC(C)C)NC(=O)[C@H](CC(N)=O)NC(=O)[C@H](Cc2c[nH]cn2)NC(=O)[C@H](CC(C)C)NC1=O
B18: Cyclo[Nle-His-Asn-Leu-NH-(CH2)6-CO-Thr-Glu-Arg-Met-Ala] (peptide)
peptide: cyclo([Nle]HNL[Ahp]TERMA)
SMILES: CCCC[C@@H]1NC(=O)[C@H](C)NC(=O)[C@H](CCSC)NC(=O)[C@H](CCCNC(=N)N)NC(=O)[C@H](CCC(=O)O)NC(=O)[C@H]([C@@H](C)O)NC(=O)CCCCCCNC(=O)[C@H](CC(C)C)NC(=O)[C@H](CC(N)=O)NC(=O)[C@H](Cc2c[nH]cn2)NC1=O

molecular target: T1, blood platelet receptor glycoprotein Ib-IX-V complex (GPIb) (human, UniProt P07359 17-652; P13224 26-206; P14770 17-177; P40197 17-560); test: inhibition of static adhesion of human platelets to coated vWF-A1; grade B = IC50 between 1 µM and 10 µM
T1 construct: whole, on cells; also called GPIb complex; GPIb receptor
Procedure: Platelet rich plasma was carefully transferred again to fresh containers, PGE1 (0.5 μg/ml, Sigma) was added and the suspension was allowed to rest for 5 min. This was followed by another centrifugation step for 15 min at 360 g. The supernatant was discarded and the cell pellets were carefully resuspended in tyrode buffer (NaCl, 137 mM (Sigma S-3014); KCl, 2.7 mM (Sigma P-9541); NaHCO₃,12 mM (Riedel deHaen 31437); NaH₂PO₄×2H₂O, 0.36 mM (Merck 6345); MgCl₂×6 H₂O, 1 mM (Sigma M-2670); Hepes, 10 mM (Sigma H-1016); glucose, 5.6 mM (Merck 8342); BSA, 0.1% (Sigma A7906)), and PGE1 (0.25 μg/ml) was added. After 5 min of resting the suspension was spun down for 15 min at 300 g. The supernatant was discarded and the pellets were carefully resuspended in TBS buffer (Tris-HCl, 50 mM (Fluka 93371); NaCl, 120 mM (Sigma S-3014); KCl, 2.7 mM (Sigma P-9541); CaCl₂, 0.05 mM (Sigma C-3306); MgCl₂×6 H₂O, 2 mM (Sigma M-2670); BSA, 0.1% (Sigma A7906); pH 7.4). The platelet count was adjusted to 2×10⁵ cells/μl, and the suspensions from individual donors were pooled at this stage. The platelets were allowed to rest for 30 min at room temperature before calcein AM (2.5 μM per 2×10⁵ cells/pi (Molecular Probes C-3099)) was added. This was followed by 15 min incubation in the dark. Cells were diluted to 5×10⁴ cells/μl and ReoPro (3 μg/ml (Centocor B. V., Leiden, N L)) was added, followed by a 10 min incubation period in the dark before adding the platelets to the assay plates.
96 well plates (Greiner hb, black, clear bottom, F, 655097) were coated with human recombinant vWF-A1 domain (1.5 μg/well, AA 475-706, expressed in E. coli) in Tris buffer (pH 7.4; Tris-HCl, 25 mM; NaCl, 150 mM) and incubated for 1 h at room temperature. After washing the wells 3× with TBS, blocking buffer (TBS with 5% BSA) was added followed by an incubation for 1 h. The wells were washed again 3× with TBS before 200 μl TBS were added to each well, preventing them from drying out. TBS was flicked out and serial dilutions of the test compound were added. The washed and calcein AM labeled thrombocytes were added to the wells (2.5×10⁶ cells/well). Following an adhesion period of 1.5 h in the dark the wells were washed 3× with TBS. Measurement of fluorescence per well was performed in a SpectraMax M5 reader (Molecular Devices). From the raw data % inhibition and IC₅₀ values were calculated.

T1 sequence (P07359 17-652, chain 1 of 4): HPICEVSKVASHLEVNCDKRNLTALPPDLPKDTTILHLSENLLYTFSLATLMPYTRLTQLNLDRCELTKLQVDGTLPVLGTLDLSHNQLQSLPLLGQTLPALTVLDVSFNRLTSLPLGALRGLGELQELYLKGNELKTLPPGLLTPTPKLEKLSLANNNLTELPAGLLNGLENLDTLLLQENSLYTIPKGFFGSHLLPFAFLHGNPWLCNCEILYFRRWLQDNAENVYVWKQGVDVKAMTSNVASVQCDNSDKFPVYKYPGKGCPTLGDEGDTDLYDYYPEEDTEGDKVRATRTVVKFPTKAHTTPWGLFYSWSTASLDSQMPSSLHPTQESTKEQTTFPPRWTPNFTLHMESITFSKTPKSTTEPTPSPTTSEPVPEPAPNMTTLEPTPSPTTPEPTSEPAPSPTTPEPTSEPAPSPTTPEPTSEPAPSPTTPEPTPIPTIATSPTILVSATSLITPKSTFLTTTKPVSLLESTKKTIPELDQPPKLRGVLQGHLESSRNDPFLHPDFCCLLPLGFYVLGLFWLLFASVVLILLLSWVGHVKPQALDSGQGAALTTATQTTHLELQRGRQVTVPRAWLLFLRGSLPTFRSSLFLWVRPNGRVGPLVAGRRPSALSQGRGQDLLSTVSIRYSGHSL
T1 sequence (P13224 26-206, chain 2 of 4): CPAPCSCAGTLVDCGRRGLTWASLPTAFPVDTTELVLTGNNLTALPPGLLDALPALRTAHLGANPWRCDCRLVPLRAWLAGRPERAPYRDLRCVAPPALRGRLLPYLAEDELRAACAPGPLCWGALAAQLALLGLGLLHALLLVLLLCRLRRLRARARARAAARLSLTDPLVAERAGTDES
T1 sequence (P14770 17-177, chain 3 of 4): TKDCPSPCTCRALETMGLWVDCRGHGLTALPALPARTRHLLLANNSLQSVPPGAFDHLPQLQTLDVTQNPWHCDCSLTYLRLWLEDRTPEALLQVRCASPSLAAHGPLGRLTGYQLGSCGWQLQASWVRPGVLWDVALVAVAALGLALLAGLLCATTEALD
T1 sequence (P40197 17-560, chain 4 of 4): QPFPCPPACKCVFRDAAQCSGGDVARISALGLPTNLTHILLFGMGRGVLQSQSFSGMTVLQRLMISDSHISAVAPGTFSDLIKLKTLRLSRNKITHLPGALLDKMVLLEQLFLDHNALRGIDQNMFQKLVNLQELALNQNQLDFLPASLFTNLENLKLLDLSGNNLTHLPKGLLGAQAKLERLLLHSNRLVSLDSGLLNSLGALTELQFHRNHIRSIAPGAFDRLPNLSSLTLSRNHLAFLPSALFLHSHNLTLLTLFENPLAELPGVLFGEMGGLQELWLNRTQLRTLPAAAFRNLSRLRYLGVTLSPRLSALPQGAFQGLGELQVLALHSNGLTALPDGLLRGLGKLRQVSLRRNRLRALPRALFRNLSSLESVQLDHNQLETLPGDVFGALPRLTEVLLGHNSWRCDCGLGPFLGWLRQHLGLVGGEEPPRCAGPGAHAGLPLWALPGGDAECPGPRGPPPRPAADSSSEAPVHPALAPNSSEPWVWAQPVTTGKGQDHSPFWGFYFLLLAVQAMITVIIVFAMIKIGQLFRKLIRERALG

IC50, 1 to 10 µM:
B1, B2, B3, B4, B5, B6, B7, B8, B9, B10, B11, B12, B13, B14, B15, B16, cyclo([Chg]HNL[Ahp]TERMA) [Cyclo[Chg-His-Asn-Leu-NH-(CH2)6-CO-Thr-Glu-Arg-Met-Ala]], B17, B18
